Measurements taken from publication PMC4872540, “Structural insight into antibody-mediated antagonism of the Glucagon-like peptide-1 Receptor” (Scientific Reports, 2016).

Biological target: human GLP-1R (human, UniProt P43220)
Experiment: cell-based or functional assay

Chain of human GLP-1R (P43220 24-463): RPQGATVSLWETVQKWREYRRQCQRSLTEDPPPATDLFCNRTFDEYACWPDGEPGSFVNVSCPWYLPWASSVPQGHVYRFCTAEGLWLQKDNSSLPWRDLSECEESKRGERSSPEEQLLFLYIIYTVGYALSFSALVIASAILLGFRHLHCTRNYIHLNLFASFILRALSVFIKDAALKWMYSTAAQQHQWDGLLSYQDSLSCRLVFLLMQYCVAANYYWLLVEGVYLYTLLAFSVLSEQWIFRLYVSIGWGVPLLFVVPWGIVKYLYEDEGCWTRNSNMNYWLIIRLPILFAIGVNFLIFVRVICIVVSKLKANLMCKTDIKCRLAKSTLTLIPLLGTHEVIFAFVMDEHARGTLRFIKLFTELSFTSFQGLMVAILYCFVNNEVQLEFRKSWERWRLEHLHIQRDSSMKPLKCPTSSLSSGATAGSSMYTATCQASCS

B1: mAb 3F52 (antibody, V domains shown)
VH: DVQLQESGPGLVKPSQSLSLTCTVTGYSITSTYDWHWIRHFPGNILEWMGYISYSGSTNYNPSLKSRISITHDTSKNRFFLKLNSVTSEDTATYYCARATASFYDGSYYFDYWGQGTTLTVSS
VL: DIQMTQTTSSLSASLGDRVTISCRASQDISNYLNWYQQKPDGTVKLLIYYTSRLHSGVPSRFSGSGSGTDYSLTISSLEQEDVATYFCQQGNTLPFTFGSGTKLEIK
IC50 of inhibition of GLP-1-mediated cAMP accumulation (Flashplate assay, BHK cells over-expressing human GLP-1R); blocks GLP-1 with GLP-1R: ~10 nM
